Reference: US20190241648A1 (STATEN BIOTECHNOLOGY B V, published 2019)
Ends that are not written are not given here.

Assays:
Assay in all cases: peptide microarray
[1] = biological target: T1, ApoC3 peptide … D45H (human, cyclic constrained)
T1 peptide: ARGWVTHGFSSLK
Source text: (§1) Amino acids G41 and G46 were highly conserved; substitution of G41 by E, N or Q caused a decrease of spot intensities by ˜70% or higher, whereas exchange of G46 by N was hardly tolerated and resulting in 90% reduced spot intensities. […] Amino acid positions V43, D45 and K51 were also well conserved with a clear preference for the wild type amino acids and a certain tolerance particularly for conservative exchanges by Y, F and I (V43), A, E and K (D45) as well as by R (K51). […] Replacement of V43 by Y, however, increased spot intensity by two fold. Amino acid positions W42 and 48S were poorly conserved or even variable; both positions were susceptible for only a number of amino acid exchanges, and exchange by F, S and T (W42) or by E (S48) even caused a two- to three-fold increase of spot intensity. Amino acid positions A39 and R40 were variable.
(§2) Pre: staining of one of the ApoC3 peptide microarrays was done with the secondary antibody goat anti-human IgG (Fe) DyLight680 (1:5000) and control antibody mouse monoclonal anti-HA (12CA5) DyLight800 (1:2000) to investigate background interactions of the secondary antibody with the antigen-derived peptides that could interfere with the main assays. Subsequent incubation of other ApoC3 peptide microarrays with antibody samples was followed by staining with secondary and control antibodies as well as read-out at scanning intensities of 7/7 (red/green). The additional HA peptides framing the peptide arrays were stained as internal quality control to confirm the assay quality and the peptide microarray integrity.

[2] = biological target: T2, ApoC3 peptide … K51Q (human, not fully specified; cyclic constrained)
T2 peptide: ARGWVTDGFSSLQ
Source text: as §1, §2

[3] = biological target: T3, ApoC3 peptide … R40W (human, thioether (positions not given here); also: cyclic constrained)
T3 peptide: AWGWVTDGFSSLK
Source text: as §1, §2

[4] = biological target: T4, ApoC3 peptide … K51G (human, thioether (positions not given here); also: cyclic constrained)
T4 peptide: ARGWVTDGFSSLG
Source text: as §1, §2

[5] = biological target: ApoC3 peptide … S48N (human, cyclic constrained)
Source text: as §1, §2

[6] = biological target: T5, ApoC3 peptide … L50N (human, not fully specified; cyclic constrained)
T5 peptide: ARGWVTDGFSSNK
Source text: as §1, §2

[7] = biological target: T6, ApoC3 peptide … T44S (human, not fully specified (bridges); also: cyclic constrained)
T6 peptide: ARGWVSDGFSSLK
Source text: as §1, §2

[8] = biological target: T7, ApoC3 peptide … A39R (human, not fully specified (bridges); also: cyclic constrained)
T7 peptide: RRGWVTDGFSSLK
Source text: as §1, §2

[9] = biological target: T8, ApoC3 peptide … L50M (human, not fully specified; cyclic constrained)
T8 peptide: ARGWVTDGFSSMK
Source text: as §1, §2

[10] = biological target: T9, ApoC3 peptide … F47T (human, also: cyclic constrained)
T9 peptide: ARGWVTDGTSSLK
Source text: as §1, §2

[11] = biological target: T10, ApoC3 peptide … W42G (human, not fully specified (bridges); also: cyclic constrained)
T10 peptide: ARGGVTDGFSSLK
Source text: as §1, §2

[12] = biological target: T11, ApoC3 peptide … R40A (human, not fully specified (bridges); also: cyclic constrained)
T11 peptide: AAGWVTDGFSSLK
Source text: as §1, §2

[13] = biological target: T12, ApoC3 peptide … T44L (human, not fully specified (bridges); also: cyclic constrained)
T12 peptide: ARGWVLDGFSSLK
Source text: as §1, §2

[14] = biological target: T13, ApoC3 peptide … G41L (human, also: cyclic constrained)
T13 peptide: ARLWVTDGFSSLK
Source text: as §1, §2

[15] = biological target: T14, ApoC3 peptide … F47S (human, also: cyclic constrained)
T14 peptide: ARGWVTDGSSSLK
Source text: as §1, §2

[16] = biological target: T15, ApoC3 peptide … G46E (human, not fully specified (bridges); also: cyclic constrained)
T15 peptide: ARGWVTDEFSSLK
Source text: as §1, §2

[17] = biological target: T16, ApoC3 peptide … G41E (human, also: cyclic constrained)
T16 peptide: AREWVTDGFSSLK
Source text: as §1, §2

[18] = biological target: T17, ApoC3 peptide … R40F (human, not fully specified (bridges); also: cyclic constrained)
T17 peptide: AFGWVTDGFSSLK
Source text: as §1, §2

[19] = biological target: T18, ApoC3 peptide … T44H (human, not fully specified (bridges); also: cyclic constrained)
T18 peptide: ARGWVHDGFSSLK
Source text: as §1, §2

[20] = biological target: T19, ApoC3 peptide … S48D (human, not fully specified; cyclic constrained)
T19 peptide: ARGWVTDGFDSLK
Source text: as §1, §2

[21] = biological target: T20, ApoC3 peptide … T44M (human, not fully specified (bridges); also: cyclic constrained)
T20 peptide: ARGWVMDGFSSLK
Source text: as §1, §2

[22] = biological target: T21, ApoC3 peptide … D45C (human, not fully specified (bridges); also: cyclic constrained)
T21 peptide: ARGWVTCGFSSLK
Source text: as §1, §2

[23] = biological target: T22, ApoC3 peptide … F47V (human, also: cyclic constrained)
T22 peptide: ARGWVTDGVSSLK
Source text: as §1, §2

[24] = biological target: T23, ApoC3 peptide … A39E (human, cyclic constrained)
T23 peptide: ERGWVTDGFSSLK
Source text: as §1, §2

[25] = biological target: T24, ApoC3 peptide … S48L (human, not fully specified (bridges); also: cyclic constrained)
T24 peptide: ARGWVTDGFLSLK
Source text: as §1, §2

[26] = biological target: T25, ApoC3 peptide … D45F (human, not fully specified (bridges); also: cyclic constrained)
T25 peptide: ARGWVTFGFSSLK
Source text: as §1, §2

[27] = biological target: T26, ApoC3 peptide … G41Q (human, also: cyclic constrained)
T26 peptide: ARQWVTDGFSSLK
Source text: as §1, §2

[28] = biological target: T27, ApoC3 peptide … D45S (human, cyclic constrained)
T27 peptide: ARGWVTSGFSSLK
Source text: as §1, §2

[29] = biological target: T28, ApoC3 peptide … G41K (human, also: cyclic constrained)
T28 peptide: ARKWVTDGFSSLK
Source text: as §1, §2

[30] = biological target: T29, ApoC3 peptide … G41V (human)
T29 sequence (peptide, cyclic constrained): ARVWVTDGFSSLK

[31] = biological target: T30, ApoC3 peptide … V43W (human)
T30 sequence (peptide, cyclic constrained): ARGWWTDGFSSLK

B1: anti-ApoC3 antibody 14C7 (antibody, V domains shown)
VH: QVQVQESGPGLVKPSQTLSLTCTVSGGSITTNSYYWSWIRQPPGKGLEWMGAIDYSGDTYYSPSLKSRTSISRDTSKNQFTLQLTSVTPEDTAVYYCVSRIPTGEYWGQGTQVTVSS
VL: QTVVTQEPSLSVSPGGTVTLTCGLNSGSVTSSNYPDWYQQTPGQAPRLLIYNTNSRHSGVPSRFSGSISGNKAALTITGAQPEDEADYYCALYMGSDSVVFGGGTHLTVL
notes: it was detected with goat anti-human IgG (Fc); also called mAb 14C7; llama antibody 14C7
% of binding to wild-type peptide [1]: 1.81%
% of binding to wild-type peptide [2]: 5.47%
% of binding to wild-type peptide [3]: 38.8%
% of binding to wild-type peptide [4]: 5.77%
% of binding to wild-type peptide [5]: 48.5%
% of binding to wild-type peptide [6]: 0%
% of binding to wild-type peptide [7]: 1.12%
% of binding to wild-type peptide [8]: 89.4%
% of binding to wild-type peptide [9]: 0.65%
% of binding to wild-type peptide [10]: 0%
% of binding to wild-type peptide [11]: 107%
% of binding to wild-type peptide [12]: 50.1%
% of binding to wild-type peptide [13]: 0.5%
% of binding to wild-type peptide [14]: 6.27%
% of binding to wild-type peptide [15]: 0%
% of binding to wild-type peptide [16]: 0%
% of binding to wild-type peptide [17]: 28.1%
% of binding to wild-type peptide [18]: 70.8%
% of binding to wild-type peptide [19]: 0.92%
% of binding to wild-type peptide [20]: 71.6%
% of binding to wild-type peptide [21]: 0%
% of binding to wild-type peptide [22]: 11.2%
% of binding to wild-type peptide [23]: 0.06%
% of binding to wild-type peptide [24]: 98.9%
% of binding to wild-type peptide [25]: 19.6%
% of binding to wild-type peptide [26]: 0%
% of binding to wild-type peptide [27]: 27.1%
% of binding to wild-type peptide [28]: 20.8%
% of binding to wild-type peptide [29]: 18%
% of binding to wild-type peptide [30]: 8.76%
% of binding to wild-type peptide [31]: 8.98%
